Series [1] deals with the molecule itself. Briefly: cross-linking; BS3 (285 μM), 5.7 μM protein incubated 2 h with DOPG liposomes of increasing concentrations, 25°C, SDS-PAGE; self-association.
Series [2] concerns the molecule itself. Briefly: SEC; Superose 12 10/300, 20 mM HEPES, 100 mM NaCl, pH 7.6, 7°C, 0.5 mL/min; self-association of the purified variant. Background: SEC sorts molecules by how far they enter the pores of the column.

B1: IM30 α1-3 (domain or fragment, Synechocystis, UniProt Q55707 26-156, looked up)
chain: EKVLEQAVIDMQEDLVQLRQAVARTIAEEKRTEQRLNQDTQEAKKWEDRAKLALTNGEENLAREALARKKSLTDTAAAYQTQLAQQRTMSENLRRNLAALEAKISEAKTKKNMLQARAKAAKANAELQQTL
notes: IM30 (Vipp1) of Synechocystis, helical hairpin α1-3, residues 26-156 (printed for the α1-3 fragment in the simulation); calculated mass about 17.5 kDa; also called IM30 αH1-3; α1-3 helical hairpin; not shown: His10, N-terminal, kept
Regarding B1, the binding result in series [1] is given as “binds”.

B2: IM30 wt (inner membrane-associated protein of 30 kDa) (natural protein, Synechocystis, UniProt Q55707 1-267, looked up)
chain: MGLFDRLGRVVRANLNDLVSKAEDPEKVLEQAVIDMQEDLVQLRQAVARTIAEEKRTEQRLNQDTQEAKKWEDRAKLALTNGEENLAREALARKKSLTDTAAAYQTQLAQQRTMSENLRRNLAALEAKISEAKTKKNMLQARAKAAKANAELQQTLGGLGTSSATSAFERMENKVLDMEATSQAAGELAGFGIENQFAQLEASSGVEDELAALKASMAGGALPGTSAATPQLEAAPVDSSVPANNASQDDAVIDQELDDLRRRLNNL
notes: IM30 (Vipp1) of Synechocystis, full-length wild type; calculated MW 31.7 kDa with tag; Forms homo-oligomeric barrels and rods of several MDa; the number of subunits was not measured here; also called wt IM30; Vipp1
In the case of B2, the binding result in series [2] is “binds”.

Source of the values: PMC12636044, “Membrane binding of a cyanobacterial ESCRT‐III protein crucially involves the helix α1‐3 hairpin conserved in all superfamily members” (Protein Science : A Publication of the Protein Society, 2025).
